According to article PMC4402518:

Target: Hop2;Mnd1 (Giardia lamblia ATCC 50803;Giardia lamblia ATCC 50803) (UniProt E2RTU1)
Test: fluorescence anisotropy
Details: Fluorescence anisotropy: 20 mM Tris-HCl pH 7.5, 100 mM NaCl, 5 mM MgCl2, 25 C, 50 nM DNA, triplicate, Exo I assay conditions not in material

Sequence: GCGGGTAATCCAGATGTTCCACGTGAAACAGAACAACTAA (double strand) [40 bp dsDNA]
- Kd (5 mM Mg2+): 100 nM
- binding signal (fold weaker than with 5 mM Mg2+) (no Mg2+): 10
